The source of these data is patent EP4537907A1.

Some results are limits rather than exact numbers.

The assay addresses recombinant human CD248 (internally produced) (human) (UniProt Q9HCU0). In words: competition ELISA: non-purified Fab E. coli supernatant mixed 1:1 with biotinylated human CD248, added to immobilised human IGFBP5, Streptavidin-HRP. (ELISA stands for enzyme-linked immunosorbent assay.)

recombinant human CD248 (internally produced) (human), sequence (Q9HCU0 18-687 limits assumed): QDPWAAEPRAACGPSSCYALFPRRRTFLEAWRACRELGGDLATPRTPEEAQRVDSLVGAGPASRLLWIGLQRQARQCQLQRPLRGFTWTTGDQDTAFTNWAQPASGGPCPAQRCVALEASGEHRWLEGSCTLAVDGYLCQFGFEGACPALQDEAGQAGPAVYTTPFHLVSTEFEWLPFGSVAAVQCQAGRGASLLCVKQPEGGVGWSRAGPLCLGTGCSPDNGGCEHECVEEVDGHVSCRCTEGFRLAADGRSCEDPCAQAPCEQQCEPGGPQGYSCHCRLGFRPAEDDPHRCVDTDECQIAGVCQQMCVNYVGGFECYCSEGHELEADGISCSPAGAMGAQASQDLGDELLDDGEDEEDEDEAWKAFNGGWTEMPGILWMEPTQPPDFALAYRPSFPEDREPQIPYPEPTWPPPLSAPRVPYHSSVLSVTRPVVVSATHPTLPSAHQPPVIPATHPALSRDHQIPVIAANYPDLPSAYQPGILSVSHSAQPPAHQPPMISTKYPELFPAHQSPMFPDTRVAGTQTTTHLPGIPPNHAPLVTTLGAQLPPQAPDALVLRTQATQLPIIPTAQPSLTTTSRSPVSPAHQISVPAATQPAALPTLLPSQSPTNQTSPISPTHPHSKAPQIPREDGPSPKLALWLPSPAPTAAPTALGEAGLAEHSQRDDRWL

B1: YU1023-A02 Fab (Fab, V domains shown)
VH: QVQLVESGPGLVKPSQTLSLTCTVSGGSISSGGYYWSWIRQHPGKGLEWIGYIYYSGSTYYNPSLKSRVTISVDTSKNQFSLKLSSVTAADTAVYYCARVRGRSATYFDYWGQGTTVTVSS
VL: QSVLTQPPSVSGAPGQRVTISCTGSSSNIGAGYDVRWYQQLPGTAPKLLIYANNNRPSGVPDRFSGSKSGTSASLAITGLQTEDEADYYCQSYDISLSGSLFGGGTKLTVL
As for B1, the fold inhibition of CD248-IGFBP5 binding over the negative control antibody (Palivizumab) is over 10 fold.
